This note sets out measurements from the DeepSol protein solubility set.

A short description of this data set: soluble on expression in E. coli; label from the status in PepcDB or PDB records.
On to “CPVNWVEHERSCYWFSRSGKAWADADNYCRLEDAHLVVVTSWEEQKFVQHHIGPVNTWMGLHDQNGPWKWVDGTDYETGFKNWRPEQPDDWYGHGLGGGEDCAHFTDDGRWNDDVCQRPYRWVCETEL”, for which the “soluble on expression in E. coli” value is given as “soluble”.
In the case of “MAHHHHHHMDPSAFGMMAGRGMGRQTEVRDARDTAETIQISSIALLKMLIHGRAGVPLEVMGLMIGEEIDDYTIRVADVFSMPQTATGQSVEAVDPEYQVHMLDKLKLVGRHENVVGWYHSHPGFGCWLSSEDVMTAAGYENLTPRSVSVVVDPIQSVRGKVVIDAFRTIPQEIMAMRAMGEYVEPRQVTSNIGFLSKPSAVALSHNLNRQYYNLPVTFRKKNHELRLLLNVYRKGWQEGFKLEKAKVYQRETRTSIRELISLSKQAEKYITQGRDEDDLGNVGQINAMSHLQMEAENVIHRNLNQSIGAMINAVVF”, the “soluble on expression in E. coli” value is on record as “not soluble”.
As for “ISGFYMSIMRDITEKRSMELQLFKSEERFREIFENAMDAIIIWSNDGRIVKANQSACKIFELPMNLLLKRKLCDFLVDSQQKYSITKRKYAKYGEIREELLFQMGNGQFKELEFTSKRTILEN”, the “soluble on expression in E. coli” value is on record as “not soluble”.
The same measure for “MSRTEGSHEAEQDLTMIVGTYTSGDSKGLYSFRFNEENGTATALSEAEVENPSYLVPSADGKFIYAVSEFSNEQAAANAFAFNKEEGTFRLLNTQKTGGEDPCYIITNGSNVVTANYSGGSISVFPIDKDGSLLPASEVVKFKGSGADKERQEKPHLHCVRITPDGKYLFADDLGTDQIHKFIVNPNAKADNEDVFLKEGSPASYKVEAGSGPRHLTFAPNGSYAYLINELSGTVIAFEYNDGELKEIQTIAADTVGAKGSGDIHISPDGKFLYASNRLKADGLAIFSIHPENGMLTKVGYQLTGIHPRNFIITPNGKYLLVACRDSNVIQVYERDTDTGLLTDIRKDIKVDKPVCIKFVPLEHHHHHH”: “soluble”; for “SEASFVQTTMALGLSSKKASSRNVAVERKNLITVCRFSVKTLLEKYTAEPIDDSSEEFVNFAAILEQILSHRFKACAPAGPVSWFSSDGQRGFWDYIRLACSKVPNNCVSSIENMENISTARAKGRAWIRVALMEKRMSEYITTALRDTRTTRRFYDSGAIMLRDEATILTGMLIGLSAIDFSFCLKGEVLDGKTPVVIDYTPYLKFTQSYDYLTDEEERHSAESSTSEDNSPEHPYLPLVTDEDSWYSKWHKMEQKFRIVYAQKGYLEELVRLRESQLKDLEAENRRLQLQLEEAAAQNQREKRELEGVILELQEQLTGLIPSDHAPLAQGSKELTTPLVNQWPSLGTLNGAEGASNSKLYRRHSFMSTEPLSAEASLSSDSQRLGEGTRDEEPWGPIGSSEPN”: “soluble”; for “MRVLVKLSGEALSGEGGRGFDPERVNYIVNEIKSAIEEGFKIGIVVGAGNLFRGVELKNLTMTRADQIGLLGTVMNSVYLKDIFERSGLKARIYSQIVNLPDVERVNYDSIESALRENSILIFAGGTSNPFFTTDTAAVLRAQEMRAKLVVKATKVDGVYDKDPKKFPDAKKIPHLTFSEAMKMGLKVMDAEAFALCKKLGITVKVINFFEPGTLLKALKGEDVGSTVVPD”: “soluble”.
Consider “MNSPANITDPLVLFMPSGKRGRFPVGTPVLDAARQLGVYVESVCGGRATCGRCQIEVQEGNFAKHKIVSSNDHISPKGPKEERYERVRGLPERRRLSCSAQILGDLVIDVPQDTVINAQTIRKDLEHHHHHH”, for which the “soluble on expression in E. coli” value is recorded as “not soluble”.
Regarding “RAKLMEERETSLKDSVEVAFDAVRLIANNPNLSEAEAKQQVKAVLTNIRYGSDGYFFAYDAQGTNLVHPIQPELVGQNLWQLQDERGDFLIQ”, the “soluble on expression in E. coli” value was “not soluble”.
For “MSPDEDLRLLYLRLIPQLAENRPEFQQAIADSPLFTAYMKLLKRQAELSPRILSALLSAISSIVRSHLPAYLKFQAKNGLTATEKLIQSTKDHKNAVKAGRMIVSFLYTLTDLQGIDEITEEIKNSILKIYTLLDGRSRFVDRADDSEETKEFYEETMKMIKFEIMQMHPDIITPQTRKLLEEHFKESNLRAGLMPIGGWPVIPKNEWPQPPQPPCHKANKNAEPKKEPEPAKKVAPKQETKVDQEAAELARKIQIEEDKTRKRHEIVARFSILDIYTKEELAEKLKLDAEMEMAEAQKVLKEIR”, the “soluble on expression in E. coli” value is listed as “not soluble”.
For “NNMFSRQAPHFAVTDYDGTLQLLEDGLVLQHDGNHPLALYDYLNDKELRTNLIKTQAARADSMTCRIEAVIQSFNHRMNTNRLVADK”, the “soluble on expression in E. coli” value was “not soluble”.
As for “MCYHLIIDSFIDRISRMHTQRGLEVTTGSIEAVDSINYFHEQVLSSGQNAIQILDSAKKHTDNLLIQTYAAAFYLYAQEDVANEQASDYLQSAFRLLTSANEREKLIFEAVTNWSKRDYANAISLLVTLLERYPRDTLALKFMEWLFYCTGQAFNAEYFLKVCDKCAPENQDESHFLAIHSFALELCGQYSKAKEMAEEAITMNLLTPWAHHTLAHVHLLTSDITGGINRLRDLQKTWEDILPLLKGHNTWHLALFYLANRNEEEVKKLYPHISGALPDTVLEQLDTISLLWRMDMAGLPQDRLLNQVVDHLSTHPLEYYTGFTNAHFIYCLVKSGYKNEADESLKRMKFYACSPSSDALWGDVVLPLCQGIYAFADADYKTALMLMEPVIGECAQLGGSDAQIELFFQTYLLVLIHNKQKDKALQFFTEHLKYYNNTPLSDWWFQSANKA”, the “soluble on expression in E. coli” value is “not soluble”.
On to “MRADGFVPLQALLQLPQFHSFSIEDVQLVVNTNEKQRFTLQPGEPSTGLLIRANQGHSLQVPELELTPLETPQALPLTLVHGTFWKHWPSILLKGLSRQGRTHIHLASGLPGDPGVISGIRPNCEVAVFIDGPLALTDGIPFFCSANGVILTPGNAEGFLLPKYFKEALQLRPTRKPLSLAGDKETETQSGPKLSSRGGRRKIQQ”, for which the “soluble on expression in E. coli” value is “soluble”.
In the case of “AHHHHHHGSEEKIILFVCVKNSARSQMAEAFFNYYNDDPRFKAMSAGTEPADDIDPLAKKVMEEIGISLEGQKPKLYTPEMADKAYIVITMGCLDKCPYAPPEKTWDWGLEDPYGKPIEKYREVRDEIKRRVLKLIEDLKAGKSREEIIGRKSLFAI”, the “soluble on expression in E. coli” value is on record as “soluble”.
Regarding “MLFTISENVKEAAQYFVEYKIQSVSDLKEFARVMKEYERKGDSFIHELVVQLNKTFITPIEREDIHQLAMKMDDVLDGFEQCSARFEMFSFTEIDEHMAKFFDYIYQSTIEIVHALELLANKKLLDMRQHAIKIKDYETKCDEILRASIKNLFVTQKDPIKIIQYKELYEMLEEIADSCEDVANTLETIIMRNA”, the “soluble on expression in E. coli” value is reported as “not soluble”.
Regarding “GGDGNITTENIPVSEYDCLELEGGGMVVNYTQSDAPEGLEIKTDRNIFEKYEFNVENHKLKIRPKKEFRKHTNFRPTEFMVTANSRNLKKLAAAGSTHVNINSPLQAEEFEAGLAGSGIIQFHDTASFTNLKIEIAGSGDFVGHKVYCEELNGDMAGSNTIVLGGTVGIAEFSIAGSGTVRAFDCTMDELECKIAGSGDIEAFVVNKIKAEIAGSGSVKYKGDPQDIQKKVMGSGKIEKVE”, the “soluble on expression in E. coli” value was “soluble”.
The value for “SISTARVPADKPVRIAFSLNDASDDTPPEDSIPLVFPELDQQLQPLPPCHDSEESMEVFKQHCQIAEEYHEVKKEITLLEQRKKELIAKLDQAEKEKVDAAELVREFEALTEENRTLRLAQSQCVEQLEKLRIQYQKRQGSS” was “soluble”; that for “MSLGSERWITVQLVGEIMGTSFERGISQYPNVNDEVHLVTESDLEAIHGVEEQGQVVVGRLASADGIPVKLDLDKMVTRHSAVLGSTGSGKSTTVASLLRSIVSGADGSDAGFPSSRILMLDIHGEYSHALSDVAKVFRISPEANQTQLHIPFWALDPNELLCFLMGRLDDKPLTAILDKVYEYKHDQAVAHPRAGLNVTSMTSDTPVPFSLKKLWLELLEPEVKTWEDTARSQPALLEAGNADNVTPPQYKPHGAGATPPFINQIGVLGIRRPLDQLRSRLLDKKYDFLLHPGDWEPDLDGNVTKDLDALLEEWLGHDKPITILDLSGVPSLVLEQLIGAILRILYEALFWGRDRSEGHHHHHH” was “soluble”.
Take “MGSDKIHHHHHHMRRRVPLNSVRAFEAAARRMSLVQASDELCVTPTAVSHQIRQLEDFLQTKLFLRRSSRLELTPESRACLAKLTEALDIIDDAIAALHKPMDMPERLVVGASASVGSLWLMPRLRNFYRTAPEIDISLTTFIERSAIETDTSDVWICNWHTNLDRRVELLLEEDIIPVCSPQMAEEFGELSFDSLRELPLVHVDRAKASINGQYPDWDRYLREYGISRNDIAKGPRFNQAGPAIEAAKAGMGALLGRSILIERALETGELIRLGDPYPIRNPYYLISPLQPASNAVKMFKDWIFAQAKTRTSTYVELPHKNRRGSDFRLTV”: the “soluble on expression in E. coli” value is recorded as “not soluble”.
Take “MSLQIKVSQFGLNLAHAWATAASSAKKSRIVTFVKLTSSDGAFGFGESAPSSRYGETLETVTAFLAKIDPKQLSFDDVPGSMAYLDKLSSGDFAAKAAVNIALWDGAGKKARKPIYDLLGLGFTENKHITSYTIGIDAPEIIRQKVLEAEQYPVLKLKVGDKNDRETMAILRSIAPAKTVRIDGNEGWKTKEEALKNIEWFAQDKNIEFVEQPMPADSNPKDLAWLKERSPLPLYADESFFAVADVSLCVDCFHGVNVKLVKTAGISGAYEALQAAKKAGLKRMIGCMVESSVLIGAGAHLAELADHLDIDTNLLITNDPFQGTTAEKGIISFAKASEPCGLRVKATPSFVMEGHHHHHH”: the “soluble on expression in E. coli” value is “soluble”.
The same measure for “MGSDKIHHHHHHLEYVIEMLNIRKEFGSFVANDNITLQLRKGEIHALLGENGAGKSTLMNVLFGLYQPEAGEIRVRGEKVNITSPNVANDLGIGMVHQHFMLVQNFTVTENIILGAEPKAGLKIDRAAAREKVRQISEQYGLAVDPDAKIEDISVGMQQRVEILKTLYRGADILIFDEPSAVLTPQEIKELIQIMNRLIAEGKSIILITHKLKEIMEVADRCTTIRRGKYIGTVDIDETMTQSRLAEMMVGREVNFNAEYSKATPQELVLDIKDLVVKDSRGIKAVDGLNLDIRAGEIVGIAGIDGNGQTELIEAITGLRKADSGEIFLNNKSIKNLKPRKVTEAGVGHIPQDRHKHGLVLDYSIGHNMVLQTYYQKPYSKAGIMNYGQVMDKAKTLIEKFDVRTPSPETFARALSGGNQQKAIIAREVDRSPDLLIAAQPTRGLDVGAIEFIHEQLVLEREKGRAVLLISFELEEILQVSDRIAVLYEGRTVAFLDPKETNEIELGFLMAGGKKEEVGRS”: “not soluble”; for “MSAPWETLLDWWFGTSSDAAEVVAQRNGLWFGKNVCQDADAGGRFGDLVNQALDGGLQEWTAEADGWLALILLLDQLPRMIYRDTPRAYAGDARAQRVVREGLEKGFDRQLPPVRRVFAYLVLEHAEDLPSQERAVACFRDLRDQVGGSVRKPFDDFYDYAERHHAVVARFGRFPHRNAILGRPSSEEETAFLREPGSRF”: “not soluble”; for “MGSDKIHHHHHHMRPDMFIGSYERSGGHGLYPAWLDSLGAISLGPPDTRIGNASFGLLDHRCGTAWFVEEQEPGAVSAWQWDDQVWTPLGRIGTGGASPCHLVRSPDGTLLAVANNDGGVAALVELDPETGALGKLAGVLRNEGGARSHAGCVRFAGDRIFIADRGLDRVLSCEYGAAGFGEVRTAFAAPRGSGPRQLLLRDDLALLACELTARLMLLRATGEGFELLDDIATDAAATPGNLAGHLAFQGDRIFVSNRGADTVASFRIDGERLRREDCWSSHGRSPRHFAMCGSYLVVTNEQDGIVCVLDIANGGRIAGTAIVPGAAFVLAMPL”: “not soluble”.
On to “KIWLFFIEQANNEIRIDLRSNGINVRDIAIKYGGGGHNNASGAIITNKKQISDVVSD”, for which the “soluble on expression in E. coli” value is reported as “soluble”.
As for “MISNIFKISAALLLLTIVSEAKPCFGRCGGRPPPPCGLPPFLEDLPSDVQTKITEIWKDYKEGDKCYEEQGLTREIMESLPKDVRKSIHKRPPLPFLRGLPKDILAKFDAIFKDKSIPFSEKPEKIDALAQEVLTGDNLKKFQEFKEKKEKEMQEYKDKESKLSAAAKVANEKLEALGKQKFAILEELDENVKDELFDLWKSRPHGPPRHH”, the “soluble on expression in E. coli” value was “not soluble”.
